In the Immune Epitope Database (IEDB) one finds IC50 data, which are given here for 89 sequences.

Where only a bound is given, the exact number is not on record here.

The target of the first assay is HLA-A*02:01. As to the kind of experiment: IEDB peptide-MHC binding, cellular MHC/competitive/fluorescence; ≥ and ≤ were set here for values at or beyond the usual limits of such assays. Conditions: source organism: Vaccinia virus WR.
One may read the IC50 as the concentration needed to halve the response being measured. Sequence TVPTMNNAKL registered an IC50 of 41.7 µM.
Sequence EVFHCMDIL yielded an IC50 of 12 µM.
On the same count and under the same terms, the figure for ITFALKKLI is no less than 70 µM; for YVTLNASQYA it is 23.1 µM.
The same measure, in the same setting: the figure for VIFLISVIV is 13.6 µM; for ILANRDSTL it is 11 µM.
KQDIVGLDL displayed an IC50 of 14.2 µM.
In turn, STMEDRPST came in with an IC50 of 32.6 µM.
DIEPDLENNL registered an IC50 of 54.4 µM.
In turn, LTGSQYYFSM registered an IC50 of 5.06 µM.
The same measure, in the same setting: the figure for NTIDQTANVV is 6.56 µM; for AAASSTHRKV it is no less than 70 µM.
Turning to GIRVKHSFSA, the IC50 was 6.87 µM.
HIHKILTREM returned an IC50 of 16.2 µM.
The sequence VALTIMGVI registered an IC50 of 8.94 µM.
With NIGKIIMSL, the IC50 turned out to be 7.04 µM.
IQQLYEFRKV showed an IC50 of 8.74 µM.
On the same count and under the same terms, the figure for KQTFGSLPA is 18.9 µM.
On the same count and under the same terms, the same measure for GAIKCEGLDV: 49 µM; for IVWEKKSLVT: 20.7 µM; for KIAISSLNKL: 36.6 µM.
Same read-out and setting: the same measure for IQKSSSIDV: 15.9 µM; for LIKKPYRSI: 59.4 µM; for TLTGSPSST: 28.6 µM.
With SQHQHLAIM, the IC50 amounted to 13.5 µM.
Sequence SVNKFKFGAA yielded an IC50 of no less than 70 µM.
In the case of VAVAAASST, the IC50 amounted to 13.5 µM.
Sequence LLKDLFPKQT had an IC50 of no less than 70 µM.
Same read-out and setting: the figure for KLSKLTDKKT is no less than 70 µM; for VTLNAGNIDI it is 12.9 µM; for ETVSTIDGRI it is no less than 70 µM.
Turning to TAVEHIPTM, the half-maximal inhibitory concentration (IC50) turned out to be 15.9 µM.
Still for that read-out and setting: the same measure for IIRRSGCRI: no less than 70 µM; for TIENALVASL: 14.4 µM; for WIKTISKRM: 23.6 µM.
Still for that read-out and setting: the figure for PAAMYQYIFL is 5.57 µM; for LTNVVNISTI it is no less than 70 µM; for DIIDFLEGAL it is 23.2 µM.
As for DALAKNASEL, the IC50 was 61.8 µM.
STVASAQIHL: the IC50 was determined as 14.2 µM.
PLSKVHGLDV yielded an IC50 of 37.9 µM.
Regarding LTASGGKVLI, the IC50 was no less than 70 µM.
The sequence DTFVSSVREV yielded an IC50 of 5.08 µM.
NAECQPLQL gave an IC50 of 14.3 µM.
On to AASKQQMLM, for which the IC50 was no less than 70 µM.
For the sequence DMPSLSNGL, the IC50 stood at 47.2 µM.
Turning to TMDGDKLSKL, the IC50 is no less than 70 µM.
For QLPMEDNSDI, the IC50 amounted to 38.5 µM.
Turning to TLPNKSDVLI, the IC50 stood at 5.32 µM.
Same read-out and setting: the figure for PIYYVQKQLV is 18.7 µM; for QLKGFYMISL it is 9.02 µM.
As for SATESDAIRT, the IC50 was no less than 70 µM.
QARNIQKIT returned an IC50 of 6.7 µM.
In turn, TASGGKVLI displayed an IC50 of 37.2 µM.
On the same count and under the same terms, the figure for RTNRNELFQL is 31.2 µM.
As for VTINNLKMM, the IC50 is 9.06 µM.
KQRTPGIITI showed an IC50 of 53.2 µM.
TLQKVLHVT showed an IC50 of 5.79 µM.
On the same count and under the same terms, the same measure for LITSAFDLL: 30.3 µM; for NVVSSSTIAT: no less than 70 µM; for LVITKLREHM: no less than 70 µM.
Turning to TVMNNLSELT, the IC50 was determined as 11.9 µM.
For RIVVYNPSTM, the IC50 was no less than 70 µM.
Take TTDNKITSI: the IC50 turned out to be 11.5 µM.
As to RIVVYNPST, the IC50 turned out to be 6.05 µM.
In turn, HMLKLQARNI displayed an IC50 of 24 µM.
In the case of DLVVLGKVTI, the IC50 is 10.9 µM.
Consider QQKKCKYCI, for which the IC50 came out at 38.8 µM.
Same read-out and setting: the figure for MTPENDEEQT is no less than 70 µM.
Same read-out and setting: the same measure for NQCMSANEA: 13.3 µM.
The same measure, in the same setting: the same measure for VANVVNHVLT: no less than 70 µM.
With IAHLLEHLL, the IC50 was determined as 14.1 µM.
Consider MQRISGSNI, for which the IC50 came out at 9.8 µM.
Regarding ELEEMVDKGT, the IC50 was no less than 70 µM.
For CISQHQHLAI, the IC50 turned out to be 11 µM.
For KTFMLPKQDI, the IC50 came to 33.6 µM.
ELPYDENGI displayed an IC50 of 8.48 µM.
In turn, CIRISMVISL returned an IC50 of 6.22 µM.
Consider EINNELELV, for which the IC50 was 8.27 µM.
PVVFYRSGT displayed an IC50 of 15.4 µM.
As to DLAFLIKFIT, the IC50 turned out to be 6.32 µM.
On to DILANRDSTL, for which the IC50 stood at 34.5 µM.
IVDDDFISA: the IC50 was 11.5 µM.
GTETKITFA yielded an IC50 of 60.6 µM.
In the case of IIRQRNDEI, the IC50 worked out at 52.8 µM.
With EINATDIII, the IC50 was determined as 17.1 µM.

For the next assay, the target named is HLA-A*02:03. As to the kind of experiment: IEDB peptide-MHC binding, purified MHC/competitive/radioactivity; ≥ and ≤ were set here for values at or beyond the usual limits of such assays. Conditions: source organism: Influenza A virus.
NMLSTVLGV: the IC50 turned out to be 0.01 µM.

In another assay the target is HLA-A*02:06. Described as above. Conditions: source organism: Influenza A virus.
Turning to NMLSTVLGV, the IC50 turned out to be 0.071 µM.

The assay is the same for the next values; noted with them: source organism: Vaccinia virus WR.
For SMHFYGWSL, the IC50 was 0.383 µM.

Another assay has as its target HLA-A*02:01. Described as above. The conditions noted are these: source organism: Vaccinia virus WR.
Take SMHFYGWSL: the IC50 was 0.192 µM.
On to MLYQLLEAV, for which the IC50 is 0.0082 µM.

The next assay addresses HLA-A*68:02. The assay is described as above. The conditions noted are these: source organism: Vaccinia virus WR.
For the sequence SMHFYGWSL, the concentration for half-maximal inhibition (IC50) came out at 0.011 µM.
